Experimental data reported in patent US9982028B2, “Recombinant human interferon-like proteins” (Novagen Holding Corporation, priority 2007, dated 2018).
Values joined by “and” are separate entries in the source; they are usually repeats but may differ in a detail not shown here. Equal entries are not always repeated. “Also recorded” adds a separate entry of the source.

Assays:
[1] = tested on: human leukemia HL 60(s) xenografts; experiment: Human leukemia xenograft model; type: in vivo, athymic nude Balb/c mice; settings: HL 60(s) xenograft; for Tumor weight (X ± SD): n = 10
[2] = tested on: human colon cancer LS 180 xenografts; experiment: Human colon cancer xenograft model; type: in vivo, athymic nude Balb/c mice; settings: LS 180 xenograft; for Tumor weight (X ± SD): n = 10
[3] = General condition of the mice during treatment; type: in vivo; settings: mice with human cancer xenografts, during the treatment period
[4] = tested on: human melanoma A-375 xenografts; experiment: Human melanoma xenograft model; type: in vivo, athymic nude Balb/c mice; settings: A-375 xenograft; for Tumor weight (X ± SD): n = 10
[5] = tested on: L-428 Hodgkin's lymphoma cell line; experiment: Anti-proliferative assay, L-428; type: cell-based, human
[6] = tested on: DU 145 prostate carcinoma cell line; experiment: Anti-proliferative assay, DU 145; type: cell-based, human
[7] = tested on: KYSE 30 esophagus carcinoma cell line; experiment: Anti-proliferative assay, KYSE 30; type: cell-based, human
[8] = tested on: MKN 1 gastric adenocarcinoma cell line; experiment: Anti-proliferative assay, MKN 1; type: cell-based, human
[9] = tested on: LS 180 colorectal adenocarcinoma cell line; experiment: Anti-proliferative assay, LS 180; type: cell-based, human
[10] = tested on: IGR-37 melanoma cell line; experiment: Anti-proliferative assay, IGR-37; type: cell-based, human
[11] = tested on: DLD-1 colorectal adenocarcinoma cell line; experiment: Anti-proliferative assay, DLD-1; type: cell-based, human
[12] = tested on: HuH-7 hepatoma cell line; experiment: Anti-proliferative assay, HuH-7; type: cell-based, human
[13] = tested on: PLC/PRF/5 hepatoma cell line; experiment: Anti-proliferative assay, PLC/PRF/5; type: cell-based, human
[14] = tested on: IGR-1 melanoma cell line; experiment: Anti-proliferative assay, IGR-1; type: cell-based, human
[15] = tested on: Hep3B hepatocellular carcinoma cell line; experiment: Anti-proliferative assay, Hep3B; type: cell-based, human
[16] = tested on: Vesicular Stomatitis Virus (VSV) on WISH cells; type: cell-based; settings: against VSV on WISH; units with reference to WHO international standards 94/786 and 95/650
[17] = tested on: A-375 melanoma cell line; experiment: Anti-proliferative assay, A-375; type: cell-based, human
[18] = tested on: SW 1116 colorectal adenocarcinoma cell line; experiment: Anti-proliferative assay, SW 1116; type: cell-based, human
[19] = tested on: LS174T colorectal adenocarcinoma cell line; experiment: Anti-proliferative assay, LS174T; type: cell-based, human
[20] = tested on: PC-3 prostate carcinoma cell line; experiment: Anti-proliferative assay, PC-3; type: cell-based, human
[21] = tested on: human liver cancer Hep G2 xenografts; experiment: Human liver cancer xenograft model; type: in vivo, athymic nude Balb/c mice; settings: 30 days; for Tumor weight (mean ± SD): n = 10
[22] = tested on: Hep G2 hepatocellular carcinoma cell line; experiment: Anti-proliferative assay, Hep G2; type: cell-based, human; settings: HepG2
[23] = tested on: C-33A cervix carcinoma cell line; experiment: Anti-proliferative assay, C-33A; type: cell-based, human
[24] = tested on: human prostate cancer PC-3 xenografts; experiment: Human prostate cancer xenograft model; type: in vivo, athymic nude Balb/c mice; settings: PC-3 xenograft; for Inhibition rate / Tumor weight (mean ± SD): 30 days; for Tumor weight (mean ± SD): n = 10
Method: Colon cancer cell line (LS 180), melanoma cell line (A-375) and liver cancer cell line (Hep G2) were obtained from the American Type Culture Collection (ATCC, Rockville, Md.). Prostate cancer cell line (PC-3) was obtained from German National Resource Centre for Biological Material (DSMZ, Deutsche […] von Mikroorganismen and Zellkulturen, Germany). Lymphocytic cell line (HL 60(s) was purchased from Japanese Collection of Research Bioresources Cell Bank (JCRB, Japan). All cells were cultured according to their instructions (see Table 1). Briefly, LS 180 and Hep G2 were cultured in MEM medium. A-375 was cultured in DMEM. Both media were supplemented with 10% fetal bovine serum (FBS), 2 mM […] U/ml of penicillin, […] of streptomycin, 0.1 mM non-essential amino acids, and 1.0 mM sodium pyruvate. PC-3 and HL 60 (S) cells were cultured in RPMI 1640, supplemented with 10% FBS, 100 U/ml of penicillin, and […] of streptomycin. All cells were maintained in 5% CO2 atmosphere at 37° C. […] For the treatment of 5-FU, 30 mg/kg of 5-FU was i.v. administrated once every two days for a total of 5 times. The groups and treatment doses are summarized below: Once treatment commenced, tumors were measured with a caliper once a week. […] Mice were sacrificed at the day of treatment discontinuation (day 30 after commencement of the treatment). Solid tumors were isolated, photographed, and measured. […] C is the average tumor weight in control group after treatment.

[25] = tested on: HCT-8 colorectal adenocarcinoma cell line; experiment: Anti-proliferative assay, HCT-8; type: cell-based, human
[26] = tested on: HL-60(S) lymphocytic cell line; experiment: Anti-proliferative assay, HL-60(S); type: cell-based, human
[27] = tested on: HeLa cervix adenocarcinoma cell line; experiment: Anti-proliferative assay, HeLa; type: cell-based, human
[28] = tested on: IPC-298 melanoma cell line; experiment: Anti-proliferative assay, IPC-298; type: cell-based, human
[29] = tested on: A549 lung carcinoma cell line; experiment: Anti-proliferative assay, A549; type: cell-based, human
[30] = 30 mg/kg (30,000 μg/kg) i.v. once every 2 days for 5 times

## O=c1[nH]cc(F)c(=O)[nH]1 [5-FU, 5-Fluorouracil, reference compound]
[1]; [30]
  Inhibition rate: 76.0%
  Tumor weight (X ± SD): 0.893 ± 0.289 g
[2]; [30]
  Inhibition rate: 81.8%
  Tumor weight (X ± SD): 0.758 ± 0.227 g
[3]
  general condition of treated mice (eating, behavior, weight loss): significant weight loss and activity reduction; also recorded: showed typical changes of eating and behavior, and weight loss
[4]; [30]
  Inhibition rate: 67.2%
  Tumor weight (X ± SD): 1.004 ± 0.105 g

B1: Novaferon: novel recombinant non-naturally occurring human interferon-like protein, 166 amino acids (SEQ ID No: 2), from Type I interferon shuffling library, expressed in E. coli (protein)
chain: CNLSQTHSLGSKRTLMLLAQMGKISLFSCLKDRHDFEFPQEEFDGNQFQKAQAISVLHELIQQTFNLFSTKESSAAWDEGLLDKFRTELYRQLNDLEACMMQEVGVEETPLMNADSILAVKKYFQRITLYLMEKKYSPCAWEVVRVEIMRSLSFSTNLQKRLRGKD
[5]
  Fold (Novaferon/HuIFN-α2b), increased tumor cell inhibition: 1134 fold
[6]
  Fold (Novaferon/HuIFN-α2b), increased tumor cell inhibition: 36 fold
[7]
  Fold (Novaferon/HuIFN-α2b), increased tumor cell inhibition: 683 fold
[1]; 1.25 μg/kg daily s.c., 21 days
  Inhibition rate: 43.8%
  Tumor weight (X ± SD): 2.091 ± 0.653 g
[1]; 12.5 μg/kg daily s.c., 21 days
  Inhibition rate: 55.2%
  Tumor weight (X ± SD): 1.668 ± 0.665 g
[1]; 125 μg/kg daily s.c., 21 days
  Inhibition rate: 80.4%
  Tumor weight (X ± SD): 0.729 ± 0.332***@ g
[8]
  Fold (Novaferon/HuIFN-α2b), increased tumor cell inhibition: 207 fold
[9]
  Fold (Novaferon/HuIFN-α2b), increased tumor cell inhibition: 350 fold
[10]
  Fold (Novaferon/HuIFN-α2b), increased tumor cell inhibition: 109 fold
[11]
  Fold (Novaferon/HuIFN-α2b), increased tumor cell inhibition: 282 fold
[12]
  Fold (Novaferon/HuIFN-α2b), increased tumor cell inhibition: 58 fold
[13]
  Fold (Novaferon/HuIFN-α2b), increased tumor cell inhibition: 16 fold
[14]
  Fold (Novaferon/HuIFN-α2b), increased tumor cell inhibition: 876 fold
[15]
  Fold (Novaferon/HuIFN-α2b), increased tumor cell inhibition: 58 fold
[16]
  anti-viral activity: 2.5×10^9 IU/mg
[17]
  Fold (Novaferon/HuIFN-α2b), increased tumor cell inhibition: 733 fold
[18]
  Fold (Novaferon/HuIFN-α2b), increased tumor cell inhibition: 222 fold
[19]
  Fold (Novaferon/HuIFN-α2b), increased tumor cell inhibition: 74 fold
[20]
  Fold (Novaferon/HuIFN-α2b), increased tumor cell inhibition: 128 fold
[21]; 1.25 μg/kg daily s.c.
  Inhibition rate: 63.4%
  average tumor volume: 783.2±270.0 mm^3
  Tumor weight (mean ± SD): 0.797 ± 0.397 g
[21]; 12.5 μg/kg daily s.c.
  Inhibition rate: 85.3%
  average tumor volume: 439.3±414.3 mm^3
  Tumor weight (mean ± SD): 0.321 ± 0.300 g
[21]; 125 μg/kg daily s.c.
  Inhibition rate: 96.6%
  average tumor volume: 104.6±56.5 mm^3
  Tumor weight (mean ± SD): 0.074±0.083 g and 0.074 ± 0.083***@ g
[22]
  Fold (Novaferon/HuIFN-α2b), increased tumor cell inhibition: 43 fold
[2]; 1.25 μg/kg daily s.c., 28 days
  Inhibition rate: 75.0%
  Tumor weight (X ± SD): 1.043 ± 0.433 g
[2]; 12.5 μg/kg daily s.c., 28 days
  Inhibition rate: 80.5%
  Tumor weight (X ± SD): 0.815 ± 0.221 g
[2]; 125 μg/kg daily s.c., 28 days
  Inhibition rate: 92.5%
  Tumor weight (X ± SD): 0.314 ± 0.086 &&&@@@ g
[23]
  Fold (Novaferon/HuIFN-α2b), increased tumor cell inhibition: 143 fold
[24]; 1.25 μg/kg daily s.c.
  Inhibition rate: 35.0%
  Tumor weight (mean ± SD): 1.266 ± 0.457 g
[24]; 12.5 μg/kg daily s.c.
  Inhibition rate: 61.0%
  Tumor weight (mean ± SD): 0.759 ± 0.574 g
[24]; 125 μg/kg daily s.c.
  Inhibition rate: 95.3% and 95.1%
  Tumor weight (mean ± SD): 0.09±0.081 g and 0.091±0.081 g and 0.091 ± 0.081***@@@ g
[24]; 125 μg/kg daily s.c., day 28
  average volume of tumor mass: 107.9±68.7 mm^3
[24]; 125 μg/kg daily s.c., day 30
  average volume of tumor mass: 122.1±100.7 mm^3
[25]
  Fold (Novaferon/HuIFN-α2b), increased tumor cell inhibition: 212 fold
[26]
  Fold (Novaferon/HuIFN-α2b), increased tumor cell inhibition: 306 fold
[3]
  general condition of treated mice (eating, behavior, weight loss): did not induce weight loss, activity changes and other negative side-effects; also recorded: normal eating and activity behavior and no weight loss; also recorded: generally ate and behaved normally, and had no weight loss
[27]
  Fold (Novaferon/HuIFN-α2b), increased tumor cell inhibition: 141 fold
[4]; 1.25 μg/kg daily s.c.
  Inhibition rate: 40.1%
[4]; 1.25 μg/kg daily s.c., 30 days (28 days in the source)
  Tumor weight (X ± SD): 1.830 ± 0.289 g
[4]; 12.5 μg/kg daily s.c.
  Inhibition rate: 75.0%
[4]; 12.5 μg/kg daily s.c., 30 days (28 days in the source)
  Tumor weight (X ± SD): 0.763±0.187 g and 0.763 ± 0.187***&& $$$ g
[4]; 125 μg/kg daily s.c.
  Inhibition rate: 82.8%
[4]; 125 μg/kg daily s.c., 30 days (28 days in the source)
  Tumor weight (X ± SD): 0.527±0.149 g and 0.527 ± 0.149***&&&@@@ g
[28]
  Fold (Novaferon/HuIFN-α2b), increased tumor cell inhibition: 70 fold
[29]
  Fold (Novaferon/HuIFN-α2b), increased tumor cell inhibition: 19 fold
